Values of other authors as cited in PMC4336166.

Biological target: clathrin coat (Homo sapiens) (UniProt Q00610)
UniProt Q00610, sequence (Q00610 2-1675): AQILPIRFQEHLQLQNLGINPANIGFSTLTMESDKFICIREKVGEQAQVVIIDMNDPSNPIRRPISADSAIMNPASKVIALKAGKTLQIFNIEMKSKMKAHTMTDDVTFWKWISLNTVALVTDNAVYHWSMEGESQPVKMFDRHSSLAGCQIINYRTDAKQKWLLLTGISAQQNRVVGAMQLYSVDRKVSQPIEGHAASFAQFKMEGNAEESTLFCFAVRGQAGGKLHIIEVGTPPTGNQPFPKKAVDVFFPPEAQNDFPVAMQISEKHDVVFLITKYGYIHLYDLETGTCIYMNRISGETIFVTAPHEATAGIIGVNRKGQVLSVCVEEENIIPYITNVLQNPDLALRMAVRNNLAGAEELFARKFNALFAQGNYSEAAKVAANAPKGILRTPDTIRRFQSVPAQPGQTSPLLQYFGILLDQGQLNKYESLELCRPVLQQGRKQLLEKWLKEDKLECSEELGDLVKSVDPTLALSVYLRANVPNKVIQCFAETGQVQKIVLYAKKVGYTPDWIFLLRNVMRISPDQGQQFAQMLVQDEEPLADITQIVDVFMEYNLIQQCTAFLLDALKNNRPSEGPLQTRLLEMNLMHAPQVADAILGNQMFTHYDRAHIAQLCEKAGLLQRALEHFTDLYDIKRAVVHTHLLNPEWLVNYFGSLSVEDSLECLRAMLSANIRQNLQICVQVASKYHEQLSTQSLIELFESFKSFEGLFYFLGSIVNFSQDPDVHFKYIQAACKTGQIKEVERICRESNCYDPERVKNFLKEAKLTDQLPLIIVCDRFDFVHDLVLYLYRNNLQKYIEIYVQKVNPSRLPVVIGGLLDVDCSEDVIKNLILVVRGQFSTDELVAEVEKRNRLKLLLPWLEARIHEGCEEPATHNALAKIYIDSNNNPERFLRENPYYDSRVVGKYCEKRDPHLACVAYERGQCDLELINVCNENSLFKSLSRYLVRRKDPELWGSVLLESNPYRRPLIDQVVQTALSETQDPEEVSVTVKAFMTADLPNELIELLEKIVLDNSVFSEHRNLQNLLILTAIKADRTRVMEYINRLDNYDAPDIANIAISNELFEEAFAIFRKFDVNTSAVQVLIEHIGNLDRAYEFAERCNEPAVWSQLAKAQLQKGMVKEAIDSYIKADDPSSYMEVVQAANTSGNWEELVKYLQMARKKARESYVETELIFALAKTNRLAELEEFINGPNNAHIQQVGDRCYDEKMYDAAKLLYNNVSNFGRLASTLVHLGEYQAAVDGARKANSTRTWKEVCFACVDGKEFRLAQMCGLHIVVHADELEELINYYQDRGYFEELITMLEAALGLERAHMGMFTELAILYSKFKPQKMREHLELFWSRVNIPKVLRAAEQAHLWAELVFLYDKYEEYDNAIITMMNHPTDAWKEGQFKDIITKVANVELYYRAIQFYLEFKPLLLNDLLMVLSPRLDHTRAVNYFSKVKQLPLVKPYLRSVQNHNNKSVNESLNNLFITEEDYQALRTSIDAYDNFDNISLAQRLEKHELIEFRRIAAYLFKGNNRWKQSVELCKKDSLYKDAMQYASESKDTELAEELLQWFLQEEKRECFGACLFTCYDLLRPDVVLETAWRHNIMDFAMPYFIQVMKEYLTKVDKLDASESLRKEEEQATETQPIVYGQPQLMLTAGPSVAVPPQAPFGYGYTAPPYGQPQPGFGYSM

For epsin CLAP domain (from UniProt Q9Y6I3), the Kd is listed as 123 µM.
